Measured values as given in PMC6086657, “Structure of the human volume regulated anion channel” (eLife, 2018).

Target: the molecule itself
Experiment: cryo-EM structure; SWELL1-FLAG homomer in 20 mM Tris pH 8, 150 mM NaCl, 0.05% digitonin, ~8 mg/mL on UltrAuFoil grids; C3 symmetry imposed; ~4 Å map

B1: human SWELL1 (LRRC8A) with a C-terminal FLAG-tag (SWELL1-GGG-FLAG) (natural protein, UniProt Q8IWT6 1-810, looked up)
chain: MIPVTELRYFADTQPAYRILKPWWDVFTDYISIVMLMIAVFGGTLQVTQDKMICLPCKWVTKDSCNDSFRGWAAPGPEPTYPNSTILPTPDTGPTGIKYDLDRHQYNYVDAVCYENRLHWFAKYFPYLVLLHTLIFLACSNFWFKFPRTSSKLEHFVSILLKCFDSPWTTRALSETVVEESDPKPAFSKMNGSMDKKSSTVSEDVEATVPMLQRTKSRIEQGIVDRSETGVLDKKEGEQAKALFEKVKKFRTHVEEGDIVYRLYMRQTIIKVIKFILIICYTVYYVHNIKFDVDCTVDIESLTGYRTYRCAHPLATLFKILASFYISLVIFYGLICMYTLWWMLRRSLKKYSFESIREESSYSDIPDVKNDFAFMLHLIDQYDPLYSKRFAVFLSEVSENKLRQLNLNNEWTLDKLRQRLTKNAQDKLELHLFMLSGIPDTVFDLVELEVLKLELIPDVTIPPSIAQLTGLKELWLYHTAAKIEAPALAFLRENLRALHIKFTDIKEIPLWIYSLKTLEELHLTGNLSAENNRYIVIDGLRELKRLKVLRLKSNLSKLPQVVTDVGVHLQKLSINNEGTKLIVLNSLKKMANLTELELIRCDLERIPHSIFSLHNLQEIDLKDNNLKTIEEIISFQHLHRLTCLKLWYNHIAYIPIQIGNLTNLERLYLNRNKIEKIPTQLFYCRKLRYLDLSHNNLTFLPADIGLLQNLQNLAITANRIETLPPELFQCRKLRALHLGNNVLQSLPSRVGELTNLTQIELRGNRLECLPVELGECPLLKRSGLVVEEDLFNTLPPEVKERLWRADKEQA
notes: SWELL1 (LRRC8A), human, UniProt Q8IWT6, cDNA Origene #RC208632; the abstract calls it full-length; the model holds residues 15-68, 94-174, 232-802 (inner subunit) and 15-68, 94-175, 214-802 (outer subunit); Homohexamer (trimer of dimers); The solubilization buffer held 2 mg/mL iodoacetamide; One endogenous SWELL1 allele remained intact in the expression cell line; also called SWELL1-FLAG; …
  stoichiometry N: 6
